From the supplement of paper PMC10126150
± gives the standard deviation of the averaged measurements.

Test system: ATP
Test: switch fluorescence ratio, 500 uM ATP over buffer (Cy3 cluster intensity, sum of 5 cycles each) (fold (ratio)); higher = stronger signal-on switching upon ATP binding; sequences stand for … in TCGTCGGCAGCGTCAGATGTGTATAAGAGACAGTTTTTTTTTTTTTTTTTTTTTTTTT…TC
Conditions: aptamer strand: ATP DNA aptamer (quencher-CACCTGGGGGAGTATTGCGGAGGAAGG + anchor), 100 nM annealed; ATP concentration: 500 uM
Procedure, shortened: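 Clusters carrying Cy3-labelled switching strands on a modified Illumina MiSeq flow-cell were annealed to 100 nM quencher-labelled ATP aptamer and imaged in selection buffer. They were imaged again after 15 min with 500 uM ATP at 22 °C, over five buffer/ATP cycles with NaOH stripping and re-annealing in between. For each cluster, the fluorescence ratio is the summed Cy3 intensity of the target cycles divided by that of the buffer cycles, averaged per switch-domain sequence. Clusters outside 100-1000 RFU were left out.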
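Further: ATP exposure 15 min at 22 °C before imaging.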

Sequence | switch fluorescence ratio
GAGGATGGGT | 0.933 ± 0.024
GAGGATTATT | 0.9694 ± 0.0059
GAGGATTGAC | 1 ± 0.038
GAGGCAAAG | 2.87 ± 2.4
GAGGCAAAGT | 1.094 ± 0.0059
GAGGCAAGGT | 1.65 ± 0.092
GAGGCACGG | 1.0469 ± 0.00025
GAGGCAGAGT | 1.04 ± 0.023
GAGGCATATA | 1.9 ± 0.29
GAGGCCGCTA | 1.84 ± 0.043
GAGGCGCATC | 1 ± 0.026
GAGGCGCTTA | 0.961 ± 0.011
GAGGCGGCTG | 0.994 ± 0.038
GAGGCGGGTG | 1.01 ± 0.013
GAGGCTGGTA | 0.98 ± 0.028
GAGGCTGTTT | 1.01 ± 0.035
GAGGGAATGG | 1.07 ± 0.061
GAGGGAATTA | 1.06 ± 0.11
GAGGGACTGG | 0.988 ± 0.084
GAGGGACTTG | 0.98 ± 0.012
GAGGGCACGC | 0.968 ± 0.06
GAGGGCCGCG | 0.997 ± 0.051

Sequence | switch fluorescence ratio
GAGGGCCGGG | 0.995 ± 0.068
GAGGGCGGCA | 1.02 ± 0.036
GAGGGCGTAA | 1.06 ± 0.035
GAGGGCTGAG | 0.985 ± 0.02
GAGGGGAAGT | 0.9982 ± 0.004
GAGGGGAGGT | 0.974 ± 0.025
GAGGGGATTG | 0.986 ± 0.047
GAGGGGCCTA | 0.968 ± 0.021
GAGGGGCGAT | 0.998 ± 0.013
GAGGGGGGAG | 0.986 ± 0.027
GAGGGGGTAG | 0.997 ± 0.033
GAGGGGGTCA | 1.02 ± 0.029
GAGGGGGTTT | 0.99 ± 0.018
GAGGGGTAAG | 1 ± 0.015
GAGGGGTACT | 1.025 ± 0.0042
GAGGGGTGTG | 0.993 ± 0.029
GAGGGGTTAG | 0.978 ± 0.014
GAGGGTAATC | 1.004 ± 0.01
GAGGGTAGAG | 1.01 ± 0.042
GAGGGTCCTA | 0.9994 ± 0.0054
GAGGGTGCAG | 1.004 ± 0.0043
GAGGGTGTAA | 1.001 ± 0.01

Sequence | switch fluorescence ratio
GAGGGTTTTG | 0.9768 ± 0.0092
GAGGTAAGGT | 1 ± 0.015
GAGGTAGGCC | 1.048 ± 0.0066
GAGGTAGTCA | 1.0112 ± 0.00047
GAGGTATGTG | 0.997 ± 0.023
GAGGTATTTG | 1.02 ± 0.037
GAGGTCCAGC | 1.14 ± 0.074
GAGGTGAGAC | 1.06 ± 0.13
GAGGTGGGGC | 1.05 ± 0.028
GAGGTGTGAG | 1.03 ± 0.018
GAGGTGTGTT | 0.996 ± 0.02
GAGGTTGATG | 1.01 ± 0.02
GAGGTTGCCG | 0.951 ± 0.018
GAGGTTGTTA | 0.993 ± 0.032
GAGGTTTAAG | 0.957 ± 0.052
GAGGTTTAAT | 0.981 ± 0.039
GAGGTTTTAT | 0.987 ± 0.054
GAGGTTTTGG | 1.03 ± 0.057
GAGTAAGAGG | 0.989 ± 0.059
GAGTAAGGGT | 0.99 ± 0.024
GAGTAAGTTT | 1.012 ± 0.0081
GAGTACACGT | 0.9813 ± 0.0061

Sequence | switch fluorescence ratio
GAGTACGGGA | 1.09 ± 0.059
GAGTAGGAAG | 0.961 ± 0.05
GAGTAGGCGC | 0.955 ± 0.032
GAGTAGTATT | 1 ± 0.02
GAGTATTTAG | 0.9801 ± 0.0093
GAGTATTTTG | 0.953 ± 0.026
GAGTCAACGG | 1.027 ± 0.0071
GAGTCACGGA | 1.01 ± 0.046
GAGTCGGGTA | 1.028 ± 0.0097
GAGTCTAAGT | 0.996 ± 0.026
GAGTCTGGGA | 1.032 ± 0.0051
GAGTCTGTGC | 1.02 ± 0.043
GAGTCTTATA | 1.01 ± 0.031
GAGTCTTTTA | 0.959 ± 0.013
GAGTGAAGGA | 1.03 ± 0.065
GAGTGACCGA | 1.01 ± 0.02
GAGTGACTTG | 1.017 ± 0.0089
GAGTGAGTCG | 0.981 ± 0.022
GAGTGCTGGG | 1.01 ± 0.011
